Assay results from article PMC5591402.

B1: wild-type N2 VHH antibody mutant G52aA [camelid] / TAMRA-labeled α-synuclein peptide [modified: tetramethylrhodamine (TAMRA) fluorophore, position not stated; tetramethylrhodamine (TAMRA) fluorophore, position not stated] [not stated] (parent)
chain 1: GQLVESGGGSVQAGGSLRLSCAASGIDSSSYCMGWFRQRPGKEREGVARINGLGGVKTAYADSVKDRFTISRDNAENTVYLQMNSLKPEDTAIYYCAAKFSPGYCGGSWSNFGYWGQGTQVTVSSH
chain 2: GYQDYEPEA

Variants of: B1
Experiment: fluorescence polarization
Details: with TAMRA-labeled α-synuclein peptide [modified: tetramethylrhodamine (TAMRA) fluorophore, 400 nM VHH, 2 nM TAMRA-labeled α-synuclein peptide, parent: 1, read off a plot

Row | Variant | ratio to parent
1 | chain 1 GQLVESGGGSVQAGGSLRLSCAASGIDSSSYCMGWFRQRPGKEREGVARINALGGVKTAYADSVKDRFTISRDNAENTVYLQMNSLKPEDTAIYYCAAKFSPGYCGGSWSNFGYWGQGTQVTVSSH | -0.01
2 | chain 1 GQLVESGGGSVQAGGSLRLSCAASGIDSSSYCMGWFRQRPGKEREGVARINGLGAVKTAYADSVKDRFTISRDNAENTVYLQMNSLKPEDTAIYYCAAKFSPGYCGGSWSNFGYWGQGTQVTVSSH | 0.015
3 | chain 1 GQLVESGGGSVQAGGSLRLSCAASGIDSSSYCMGWFRQRPGKEREGVARANGLGGVKTAYADSVKDRFTISRDNAENTVYLQMNSLKPEDTAIYYCAAKFSPGYCGGSWSNFGYWGQGTQVTVSSH | 0.41
4 | chain 1 GQLVESGGGSVQAGGSLRLSCAASGIDSSSYCMGWFRQRPGKEREGVARINGLGGVATAYADSVKDRFTISRDNAENTVYLQMNSLKPEDTAIYYCAAKFSPGYCGGSWSNFGYWGQGTQVTVSSH | 0.1
5 | chain 1 GQLVESGGGSVQAGGSLRLSCAASGIDSSSYCMGWFRQRPGKEREGVARIAGLGGVKTAYADSVKDRFTISRDNAENTVYLQMNSLKPEDTAIYYCAAKFSPGYCGGSWSNFGYWGQGTQVTVSSH | 0.015
6 | chain 1 GQLVESGGGSVQAGGSLRLSCAASGIDSSSYCMGWFRQRPGKEREGVARINGLGGVKTAYADSVKDRFTISRDNAENTVYLQMNSLKPEDTAIYYCAAKFSPGYCGGSASNFGYWGQGTQVTVSSH | 0.075
7 | chain 1 GQLVESGGGSVQAGGSLRLSCAASGIDSSSYCMGWFRQRPGKEREGVARINGLGGVKTAYADSVKDRFTISRDNAENTVYLQMNSLKPEDTAIYYCAAKFSPGACGGSWSNFGYWGQGTQVTVSSH | 0.07
